In article PMC5674885 (The Journal of Cell Biology, 2017) one finds Kd data, which are given here for one molecule.

This assay concerns the target T1, kindlin-2 (recombinant, full length, amino acids 1–680) (mouse, UniProt Q8CIB5 1-680).
T1 sequence (looked up): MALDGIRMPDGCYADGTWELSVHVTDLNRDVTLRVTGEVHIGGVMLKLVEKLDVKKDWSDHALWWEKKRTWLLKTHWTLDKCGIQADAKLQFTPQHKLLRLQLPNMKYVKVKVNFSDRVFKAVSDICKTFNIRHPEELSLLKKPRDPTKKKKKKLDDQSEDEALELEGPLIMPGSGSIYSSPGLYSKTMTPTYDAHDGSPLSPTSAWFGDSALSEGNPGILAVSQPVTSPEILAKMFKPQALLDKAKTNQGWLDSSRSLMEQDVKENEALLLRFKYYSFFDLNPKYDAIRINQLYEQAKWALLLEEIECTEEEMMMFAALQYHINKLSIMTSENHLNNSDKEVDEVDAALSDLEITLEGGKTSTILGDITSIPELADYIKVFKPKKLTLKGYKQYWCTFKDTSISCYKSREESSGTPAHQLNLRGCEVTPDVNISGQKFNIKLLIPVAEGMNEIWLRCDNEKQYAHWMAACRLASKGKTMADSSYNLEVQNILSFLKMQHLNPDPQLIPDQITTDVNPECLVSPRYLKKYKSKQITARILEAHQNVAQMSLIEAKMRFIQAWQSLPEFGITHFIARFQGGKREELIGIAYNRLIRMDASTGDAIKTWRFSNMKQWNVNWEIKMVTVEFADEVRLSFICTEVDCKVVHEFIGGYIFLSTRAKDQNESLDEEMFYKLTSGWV
The assay can be described thus: ITC.

B1: paxillin (recombinant, full length, amino acids 1–557) (natural protein)
chain: not shown
modifications: Atto520 label (NHS ester) in the ultracentrifugation of Fig. 1 B only
As for B1, the Kd worked out at 0.205 ± 0.059 µM.

In general, Kd refers to the free concentration of one partner at which half of the binding sites on the other are occupied at equilibrium, for simple one-to-one binding.
